Experimental data: patent publication US20210309732A1 (ELIXIRON IMMUNOTHERAPEUTICS HONG KONG, published 2021)

Columns and labels:
[1] = target: T1, rhesus GM-CSF (rhesus, UniProt Q9GL44 18-144); test: ELISA, rhesus GM-CSF coated on the plate, anti-human kappa light chain-HRP, OD 450 nm
Protocol: (§1) Human and mouse GM-CSF have about 56% homology and are species specific. Rhesus and GM-CSF has 96.5% homologous to human GM-CSF (Hutchinson et al, J Med Virol 2001, 65:561-565, Genbank accession number AY007376). […] ELISA was performed as followed. Briefly, GM-CSF proteins were coated on the ELISA absorbing plates, then blocked by 1% BSA in PBS. […] After incubation, the plates were washed three times with TBST and incubated with anti-human kappa light chain conjugated HRP secondary antibodies. Plates were washed three times, TMB peroxidase substrate was added and reactions were stopped by adding 1 N sulfuric acid.

[2] = target: T2, recombinant human GM-CSF (human, UniProt P04141 18-144); test: cell-based or functional assay
T2 sequence (P04141 18-144 limits assumed): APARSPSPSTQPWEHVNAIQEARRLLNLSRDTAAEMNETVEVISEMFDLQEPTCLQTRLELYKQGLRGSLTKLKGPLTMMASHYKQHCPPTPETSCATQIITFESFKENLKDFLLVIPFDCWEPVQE

[3] = target: T2, recombinant human GM-CSF; test: ELISA, human GM-CSF coated on the plate, anti-human kappa light chain-HRP, OD 450 nm
Protocol: as §1

[4] = target: T2, recombinant human GM-CSF; test: SPR Biacore 3000, antibody captured by goat anti-human IgG, rhGM-CSF injected
Protocol: The kinetic binding analysis of anti-GM-CSF antibodies to recombinant human GM-CSF (rhGM-CSF) was determined by Surface plasmon resonance (SPR) using the Biacore 3000 instrument (GE Healthcare). Goat anti-human IgG (5 μg/mL) (SouthernBiotech) was stabilized in […] acetate buffer, pH 4.5, and immobilized on an EDC/NHS pre-activated carboxymethylated dextran 5 (CMS) sensor chip (GE Healthcare) through amine coupling kit (GE Healthcare). HBS-EP buffer (HBS; 10 […], 0.005% surfactant Tween-20, pH 7.4) (GE Healthcare) was used as running buffer. […] CMS sensor chip coated only with goat anti-human IgG was used as reference chip. rhGM-CSF (Biolegend) was injected over the mAb-coated CMS sensor chip and reference chip at different concentrations. The flow rate was 30 μl/min. […] Injection time and dissociation time were 180 and 600 seconds. Data were fitted to a 1:1 model using the Biacore 3000 evaluation software.

[5] = target: T2, recombinant human GM-CSF; test: Gator (pro), Coating Ag
[6] = target: T2, recombinant human GM-CSF; test: Biacore
[7] = target: T2, recombinant human GM-CSF; test: ELISA on coated rhGM-CSF, UBA relative to 1D2
How it was run: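 Antibody clones carrying SDR point mutants in VH or VL, each paired with the wild-type chain, were expressed in HEK293 cells. Culture media diluted 1:12000 were bound to plates coated with rhGM-CSF at 1 μg/mL for 1 h at room temperature. Detection used HRP anti-human antibody and Amplex Red fluorescence (Ex530/Em590), with UBA = fluorescence signal/dilution factor.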

[8] = target: T2, recombinant human GM-CSF; test: Gator, Coating Ag
[9] = target: T2, recombinant human GM-CSF; test: Biacore; remark: listed apart in the source
[10] = target: T1, rhesus GM-CSF; test: ELISA, GM-CSF coated on the plate, anti-human kappa light chain-HRP, OD 450 nm
Protocol: as §1

[11] = target: T3, mouse GM-CSF (mouse, UniProt P01587 18-141); test: as above
T3 sequence (looked up): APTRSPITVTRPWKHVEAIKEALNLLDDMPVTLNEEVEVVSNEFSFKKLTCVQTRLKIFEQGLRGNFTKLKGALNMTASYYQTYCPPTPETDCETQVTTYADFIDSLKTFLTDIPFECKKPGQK
Protocol: as §1

[12] = target: T2, recombinant human GM-CSF; test: as above
Protocol: as §1

[13] = target: T2, recombinant human GM-CSF; test: cell-based or functional assay; remark: listed apart in the source
[14] = target: T2, recombinant human GM-CSF; test: Gator, Coating Ab
[15] = target: T2, recombinant human GM-CSF; test: Biacore; remark: listed apart in the source

T1 sequence (Q9GL44 entry or part of it limits assumed): as the sequence (P04141 18-144 limits assumed) above, with S9G, E38K, I43V, T53S, R67Q, E104Q counted along it

B1: antibody 1D2 (antibody, V domains shown)
VH: QVQLVQSGAEVKKPGASVKVSCEASGYTFTDKYLHWVRQAPGQGLEWMAWINPKSGGTFYAQNFKGRVTVTRDTSINTAYLELTSLRLDDTSTYYCARGRDYYDQGAADLWGQGTMVTVSS
VL: DIQLTQSPSSLSASVGDRVTITCRASQGINSVLAWYQQKPGKAPKLLLYAASKLESGVPSRFSGSGSGTDYTLTISSLQPEDFGTYYCQQYYSPVRTFGQGTKVEIKR
notes: also called 1D2-WT; WT
[1]
  EC50 (read off the curve): ~0.5 nM
[2]
  IC50 (M), inhibition of GM-CSF induced TF-1 cell proliferation (FIG. 5A): 1.71e-10 M
  IC50 (M), inhibition of GM-CSF induced TF-1 cell proliferation (FIG. 5B): 2.28e-10 M
[3]
  EC50 (read off the curve): ~0.4 nM
[4]
  Kd: 0.0643 nM
  koff: 7.48e-05 s⁻¹
  kon: ~1.16e+06 M⁻¹ s⁻¹
[5]
  Kd: 0.00157 nM
[6]
  Kd: 0.162 nM
[7]
  binding affinity % of 1D2: 100%
[8]
  Kd: 0.0176 nM
[9]
  Ka: 1.01e+10 M⁻¹
  Kd: 0.099 nM
  koff: 0.000173 s⁻¹
  kon: 1.75e+06 M⁻¹ s⁻¹
[10]
  EC50 (read off the curve): ~0.06 nM
[11]
  binding result: no binding (tested: about 4e-8 M)
[12]
  EC50 (read off the curve): ~0.08 nM
[13]
  IC50, inhibition of GM-CSF induced TF-1 cell proliferation: 0.0631 nM
  IC50, inhibition of rhGM-CSF induced CCL17 secretion from PBMCs: 0.0714 nM
  IC50, inhibition of rhGM-CSF induced CCL17 secretion in human PBMCs: 0.159 nM
  IC50, inhibition of rhGM-CSF induced IL-8 secretion in U937 cells: 0.0594 nM
[14]
  Kd: 0.177 nM
[15]
  Kd: 0.099 nM
  koff: 0.000173 s⁻¹
  kon: 1.75e+06 M⁻¹ s⁻¹
